# B1: Azoarcus group I ribozyme (parent)
# chain: GUGCCUUGCGCCGGGAAACCACGCAAGGGAUGGUGUCAAAUUCGGCGAAACCUAAGCGCCCGCCCGGGCGUAUGGCAACGCCGAGCCAAGCUUCGGCGCCUGCGCCGAUGAAGGUGUAGAGACUAGACGGCACCCACCUAAGGCAAACGCUAUGGUGAAGGCAUAGUCCAGGGAGUGGCGAAAGUCACACAAACCGG
# Variants of: B1
# Assay: reverse-splicing fitness (ratio to wild type); higher = more active; in vitro selection; Mg2+ level not given
# Procedure, shortened: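 An in vitro group I ribozyme library with randomized positions was T7-transcribed and gel-purified. In triplicate, 10 pmol RNA in EPPS pH 7.5 was reacted with 50 pmoles of a 30-nt RNA substrate for 1 h at 37 °C across several added MgCl2 levels (1–48 mM), then stopped with EDTA. Products were reverse transcribed from a substrate-complementary primer, PCR-amplified and sequenced (HiSeq 4000). Fitness is a variant's read proportion after selection over that before, normalised to wild type.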
row,Variant,reverse-splicing fitness
1,C82U A120U A145U C150U C169G,0.00432
2,C82U A120U A145U C150U C169A,0.0024
3,C82U A120U A145U C150U C169U,0.00476
4,C82U A145U C169U,0.0139
5,C82U A145U C169G,0.00906
6,C82U A145U C169A,0.00801
7,C82U A120U A145U C150G U176G,0.00253
8,C82U A120U A145U C150G U176C,0.0104
9,C82U C150A C169G U176C,0.0184
10,C82U C150A C169G U176G,0.00558
11,C82U C150A C169G U176A,0.0177
12,C82U A120U C150U C169G U176G,0.00155
13,C82U A120U C150U C169G U176C,0.00284
14,C82U A120U C150U C169G U176A,0.0036
15,C82U A120U C150G,0.0156
16,C82U A120U C150U,0.0886
17,C82U A120U C150A,0.0169
18,C82U A145G C169A U176G,0.00411
19,C82U A145G C169A U176A,0.0178
20,C82U A145G C169A U176C,0.0258
21,C82U A120U A145U C150U C169G U176A,0.00254
22,C82U A120U A145U C150U C169G U176G,0.00157
23,C82U A120U A145U C150U C169G U176C,0.00299
24,C82U A145C C150A C169A U176A,0.0088

row,Variant,reverse-splicing fitness
1,C82U A145C C150A C169A U176C,0.00505
2,C82U A145C C150A C169A U176G,0.0047
3,C82U A145C C150U C169U U176C,0.00673
4,C82U A145C C150U C169U U176G,0.00478
5,C82U A145C C150U C169U U176A,0.0121
6,C82U A120U C150A U176G,0.00418
7,C82U A120U C150A U176A,0.00756
8,C82U A120U C150A U176C,0.0109
9,C82U C150U C169G U176C,0.015
10,C82U C150U C169G U176G,0.0052
11,C82U C150U C169G U176A,0.0135
12,C82U A120U C150U C169U U176C,0.0038
13,C82U A120U C150U C169U U176A,0.00407
14,C82U A120U C150U C169U U176G,0.00209
15,C82U A120U C150U U176C,0.0451
16,C82U A120U C150U U176A,0.0245
17,C82U A120U C150U U176G,0.00728
18,C82U A145U C150G,0.0715
19,C82U A145U C150U,0.438
20,C82U A145U C150A,0.0658
21,C82U C150G C169G,0.00776
22,C82U C150G C169A,0.00916
23,C82U C150G C169U,0.00789
24,C82U A145U U176G,0.153

row,Variant,reverse-splicing fitness
1,C82U A145U U176C,0.477
2,C82U A145U U176A,0.412
3,C82U C150A C169A U176A,0.019
4,C82U C150A C169A U176C,0.0149
5,C82U C150A C169A U176G,0.00489
6,C82U A120U A145U U176G,0.013
7,C82U A120U A145U U176C,0.0847
8,C82U A120U A145U U176A,0.0411
9,C82U C150U U176A,0.238
10,C82U A145G C150A U176A,0.0793
11,C82U A145G C150A U176G,0.0228
12,C82U A145G C150A U176C,0.0964
13,C82U A145C C150G C169U U176A,0.00881
14,C82U A145C C150G C169U U176C,0.00785
15,C82U A145C C150G C169U U176G,0.00486
16,C82U C150G C169U U176C,0.01
17,C82U C150G C169U U176A,0.0076
18,C82U C150G C169U U176G,0.0055
19,C82U A145U C150U C169A U176A,0.0115
20,C82U A145U C150U C169A U176G,0.0048
21,C82U A145U C150U C169A U176C,0.00789
22,C82U A120U C169U U176A,0.00362
23,C82U A120U C169U U176G,0.00164
24,C82U A120U C169U U176C,0.0045

row,Variant,reverse-splicing fitness
1,C82U A145U C150G C169A,0.00864
2,C82U A145U C150G C169G,0.00717
3,C82U A145U C150G C169U,0.00842
4,C82U A120U A145U C169U U176G,0.00161
5,C82U A120U A145U C169U U176C,0.00358
6,C82U A120U A145U C169U U176A,0.00227
7,C82U C150G U176A,0.0283
8,C82U C150G U176G,0.00652
9,C82U C150G U176C,0.0477
10,C82U A145G C150A C169U,0.0093
11,C82U A145G C150A C169G,0.00784
12,C82U A145G C150A C169A,0.0109
13,C82U A145C C150A C169G U176C,0.00995
14,C82U A145C C150A C169G U176G,0.00485
15,C82U A145C C150A C169G U176A,0.0178
16,C82U A145C C150G U176C,0.0583
17,C82U A145C C150G U176G,0.00905
18,C82U A145C C150G U176A,0.0431
19,C82U C150U C169G,0.00973
20,C82U C150U C169A,0.00983
21,C82U C150U C169U,0.0129
22,C82U A120U C150A C169A U176G,0.00199
23,C82U A120U C150A C169A U176A,0.00373
24,C82U A120U C150A C169A U176C,0.0026

row,Variant,reverse-splicing fitness
1,C82U A120U A145U C169A U176C,0.00166
2,C82U A120U A145U C169A U176A,0.00185
3,C82U A120U A145U C169A U176G,0.00174
4,C82U A120U C150G U176G,0.0022
5,C82U A120U C150G U176A,0.00531
6,C82U A120U C150G U176C,0.00788
7,C82U A145C C150U C169G,0.00634
8,C82U A145C C150U C169U,0.00874
9,C82U A145C C150U C169A,0.00695
10,C82U A120U C150A C169G U176A,0.00443
11,C82U A120U C150A C169G U176C,0.00268
12,C82U A120U C150A C169G U176G,0.00171
13,C82U A120U A145U C150U,0.106
14,C82U A145C C169U U176A,0.0118
15,C82U A145C C169U U176C,0.00956
16,C82U A145C C169U U176G,0.00457
17,C82U C150G C169A U176C,0.01
18,C82U C150G C169A U176A,0.0115
19,C82U C150G C169A U176G,0.00612
20,C82U A145G C150G C169G U176C,0.0124
21,C82U A145G C150G C169G U176A,0.01
22,C82U A145G C150G C169G U176G,0.00548
23,C82U A145U C150A C169G U176C,0.00918
24,C82U A145U C150A C169G U176A,0.0104

row,Variant,reverse-splicing fitness
1,C82U A145U C150A C169G U176G,0.0051
2,C82U A145G C150G C169A U176C,0.0125
3,C82U A145G C150G C169A U176A,0.0146
4,C82U A145G C150G C169A U176G,0.00764
5,C82U A145G C150G,0.0812
6,C82U A145G C150A,0.103
7,C82U A145G C150U,0.527
8,C82U A145U C169A U176C,0.00648
9,C82U A145U C169A U176A,0.00693
10,C82U A145U C169A U176G,0.00464
11,C82U A145C C150U C169A U176G,0.00518
12,C82U A145C C150U C169A U176A,0.00827
13,C82U A145C C150U C169A U176C,0.00467
14,C82U A145U C150G C169U U176G,0.00514
15,C82U A145U C150G C169U U176A,0.00782
16,C82U A145U C150G C169U U176C,0.0114
17,C82U A145G C150A C169U U176G,0.00508
18,C82U A145G C150A C169U U176A,0.0137
19,C82U A145G C150A C169U U176C,0.0152
20,C82U A145C C150U,0.172
21,C82U A145C C150A,0.0351
22,C82U A145C C150G,0.0813
23,C82U A145U C150U C169G,0.00951
24,C82U A145U C150U C169U,0.0118

row,Variant,reverse-splicing fitness
1,C82U A145U C150U C169A,0.00939
2,C82U A145G U176G,0.125
3,C82U A145G U176A,0.353
4,C82U A145G U176C,0.44
5,C82U A120U C169A,0.00227
6,C82U A120U C169U,0.00737
7,C82U A120U C169G,0.00592
8,C82U A120U C150A C169A,0.00297
9,C82U A120U C150A C169U,0.00341
10,C82U A120U C150A C169G,0.00313
11,C82U A120U C150U C169U,0.00548
12,C82U A120U C150U C169A,0.00404
13,C82U A120U C150U C169G,0.00457
14,C82U A145U C150G C169A U176C,0.00964
15,C82U A145U C150G C169A U176G,0.00523
16,C82U A145U C150G C169A U176A,0.0105
17,C82U C150A C169U U176C,0.0153
18,C82U C150A C169U U176A,0.0169
19,C82U C150A C169U U176G,0.0058
20,C82U A145G C150G C169U,0.00979
21,C82U A145G C150G C169G,0.00814
22,C82U A145G C150G C169A,0.00942
23,C82U A145G C150A C169G U176G,0.0053

# — the RNAGym collection of RNA variant scans (doi:10.1093/molbev/msab373)
